Results taken from patent US20260167699A1 (Chugai, published 2026).
Numbering of substitutions follows the chain as printed.

T1: FcγRIIa(R) extracellular domain with C-terminal His tag (human, UniProt P12318 34-217)
T1 construct: extracellular domain; R131 allotype; also called 2aR; CD32
T1 sequence: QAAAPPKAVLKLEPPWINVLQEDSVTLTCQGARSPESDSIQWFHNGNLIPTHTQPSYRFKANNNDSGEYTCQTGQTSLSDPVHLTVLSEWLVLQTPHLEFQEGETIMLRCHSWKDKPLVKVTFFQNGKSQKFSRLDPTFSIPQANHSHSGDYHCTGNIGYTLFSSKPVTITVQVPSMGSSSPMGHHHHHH

T2: FcγRIIa(H) extracellular domain with C-terminal His tag (human, UniProt P12318 34-217)
T2 construct: extracellular domain; H131 allotype; also called 2aH; CD32
T2 sequence: T1 sequence with R134H

T3: FcγRIIb extracellular domain with C-terminal His tag (human, UniProt P31994 43-217)
T3 construct: extracellular domain; also called 2b; CD32
T3 sequence: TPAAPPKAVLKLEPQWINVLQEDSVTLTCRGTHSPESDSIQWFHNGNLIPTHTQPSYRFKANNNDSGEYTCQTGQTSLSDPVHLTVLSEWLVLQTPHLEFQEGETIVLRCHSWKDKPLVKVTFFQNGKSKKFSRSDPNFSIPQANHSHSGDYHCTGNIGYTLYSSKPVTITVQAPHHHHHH

B1: GpH7-A5/GpH7-B3 variant I332_15Y/GpL16-k0 (antibody, human IgG1, kappa)
heavy 1: not shown
heavy 2: not shown
light: DIVMTQSPLSLPVTPGEPASISCQASESLVHSNRNTYLHWYLQKPGQSPQLLIYKVSNRFSGVPDRFSGSGSGTDFTLKISRVEAEDVGVYYCSQNTHVPPTFGQGTKVEIERTVAAPSVFIFPPSDEQLKSGTASVVCLLNNFYPREAKVQWKVDNALQSGNSQESVTEQDSKDSTYSLSSTLTLSKADYEKHKVYACEVTHQGLSSPVTKSFNRGEC
notes: heterodimerized IgG1 (He Ab), mutation in one H chain only; also called He Ab
B2: GpH7-A5/GpH7-B3 variant K334_09D/GpL16-k0 (antibody, human IgG1, kappa)
heavy 1: not shown
heavy 2: not shown
light: B1 light
notes: as for B1
B3: GpH7-A5/GpH7-B3 variant K334_01G/GpL16-k0 (antibody, human IgG1, kappa)
heavy 1: not shown
heavy 2: not shown
light: B1 light
notes: as for B1
B4: GpH7-A5/GpH7-B3 variant I336_09D/GpL16-k0 (antibody, human IgG1, kappa)
heavy 1: not shown
heavy 2: not shown
light: B1 light
notes: as for B1
B5: GpH7-A5/GpH7-B3 variant I336_04F/GpL16-k0 (antibody, human IgG1, kappa)
heavy 1: not shown
heavy 2: not shown
light: B1 light
notes: as for B1
B6: GpH7-A5/GpH7-B3 variant I336_19Q/GpL16-k0 (antibody, human IgG1, kappa)
heavy 1: not shown
heavy 2: not shown
light: B1 light
notes: as for B1
B7: GpH7-A5/GpH7-B3 variant K334_06M/GpL16-k0 (antibody, human IgG1, kappa)
heavy 1: not shown
heavy 2: not shown
light: B1 light
notes: as for B1
B8: GpH7-A5/GpH7-B3 variant I336_14T/GpL16-k0 (antibody, human IgG1, kappa)
heavy 1: not shown
heavy 2: not shown
light: B1 light
notes: as for B1
B9: GpH7-A5/GpH7-B3 variant K334_05P/GpL16-k0 (antibody, human IgG1, kappa)
heavy 1: not shown
heavy 2: not shown
light: B1 light
notes: as for B1
B10: GpH7-A5/GpH7-B3 variant I332_20W/GpL16-k0 (antibody, human IgG1, kappa)
heavy 1: not shown
heavy 2: not shown
light: B1 light
notes: as for B1
B11: GpH7-A5/GpH7-B3 variant I336_03V/GpL16-k0 (antibody, human IgG1, kappa)
heavy 1: not shown
heavy 2: not shown
light: B1 light
notes: as for B1
B12: GpH7-A5/GpH7-B3 variant K334_04F/GpL16-k0 (antibody, human IgG1, kappa)
heavy 1: not shown
heavy 2: not shown
light: B1 light
notes: as for B1
B13: GpH7-A5/GpH7-B3 variant I336_18N/GpL16-k0 (antibody, human IgG1, kappa)
heavy 1: not shown
heavy 2: not shown
light: B1 light
notes: as for B1
B14: GpH7-A5/GpH7-B3 variant I336_02A/GpL16-k0 (antibody, human IgG1, kappa)
heavy 1: not shown
heavy 2: not shown
light: B1 light
notes: as for B1
B15: GpH7-A5/GpH7-B3 variant I336_15Y/GpL16-k0 (antibody, human IgG1, kappa)
heavy 1: not shown
heavy 2: not shown
light: B1 light
notes: as for B1
B16: GpH7-A5/GpH7-B3 variant I332_18N/GpL16-k0 (antibody, human IgG1, kappa)
heavy 1: not shown
heavy 2: not shown
light: B1 light
notes: as for B1
B17: GpH7-A5/GpH7-B3 variant I336_08L/GpL16-k0 (antibody, human IgG1, kappa)
heavy 1: not shown
heavy 2: not shown
light: B1 light
notes: as for B1
B18: GpH7-A5/GpH7-B3 variant K334_08L/GpL16-k0 (antibody, human IgG1, kappa)
heavy 1: not shown
heavy 2: not shown
light: B1 light
notes: as for B1
B19: GpH7-A5/GpH7-B3 variant K334_07I/GpL16-k0 (antibody, human IgG1, kappa)
heavy 1: not shown
heavy 2: not shown
light: B1 light
notes: as for B1
B20: GpH7-A5/GpH7-B3 variant K334_02A/GpL16-k0 (antibody, human IgG1, kappa)
heavy 1: not shown
heavy 2: not shown
light: B1 light
notes: as for B1
B21: GpH7-A5/GpH7-B3 variant I336_13S/GpL16-k0 (antibody, human IgG1, kappa)
heavy 1: not shown
heavy 2: not shown
light: B1 light
notes: as for B1
B22: GpH7-A5/GpH7-B3 variant K334_03V/GpL16-k0 (antibody, human IgG1, kappa)
heavy 1: not shown
heavy 2: not shown
light: B1 light
notes: as for B1
B23: GpH7-A5/GpH7-B3 variant I336_01G/GpL16-k0 (antibody, human IgG1, kappa)
heavy 1: not shown
heavy 2: not shown
light: B1 light
notes: as for B1
B24: GpH7-A5/GpH7-B3 variant I332_16H/GpL16-k0 (antibody, human IgG1, kappa)
heavy 1: not shown
heavy 2: not shown
light: B1 light
notes: as for B1
B25: GpH7-A5/GpH7-B3 variant I336_06M/GpL16-k0 (antibody, human IgG1, kappa)
heavy 1: not shown
heavy 2: not shown
light: B1 light
notes: as for B1
B26: GpH7-A5/GpH7-B3 variant I336_12R/GpL16-k0 (antibody, human IgG1, kappa)
heavy 1: not shown
heavy 2: not shown
light: B1 light
notes: as for B1
B27: GpH7-A5/GpH7-B3 variant I332_19Q/GpL16-k0 (antibody, human IgG1, kappa)
heavy 1: not shown
heavy 2: not shown
light: B1 light
notes: as for B1
B28: GpH7-A5/GpH7-B3 variant I336_11K/GpL16-k0 (antibody, human IgG1, kappa)
heavy 1: not shown
heavy 2: not shown
light: B1 light
notes: as for B1
B29: GpH7-A5/GpH7-B3 variant I336_16H/GpL16-k0 (antibody, human IgG1, kappa)
heavy 1: not shown
heavy 2: not shown
light: B1 light
notes: as for B1
B30: GpH7-A5/GpH7-B3 variant I336_10E/GpL16-k0 (antibody, human IgG1, kappa)
heavy 1: not shown
heavy 2: not shown
light: B1 light
notes: as for B1

The binders below were run against T4, FcγRIa extracellular domain with C-terminal His tag (human, UniProt P12314 16-292) (assay: SPR; % of GpH7-A5/GpH7-B3/GpL16-k0).
T4 construct: extracellular domain; also called 1a; CD64
T4 sequence (P12314 other isoform, or with tags, fused parts or gaps): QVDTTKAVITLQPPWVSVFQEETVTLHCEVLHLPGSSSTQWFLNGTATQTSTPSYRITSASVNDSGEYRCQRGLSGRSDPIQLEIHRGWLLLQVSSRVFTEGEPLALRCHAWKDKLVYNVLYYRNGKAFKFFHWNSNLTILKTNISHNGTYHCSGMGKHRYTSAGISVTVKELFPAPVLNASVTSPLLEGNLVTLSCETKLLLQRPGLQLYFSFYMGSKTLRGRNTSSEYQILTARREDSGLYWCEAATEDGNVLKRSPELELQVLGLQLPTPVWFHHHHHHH

He/Con 1a | Binder
101% | B1
101% | B2
98% | B3
107% | B4
109% | B5
107% | B6
99% | B7
108% | B8
98.7% | B9
104% | B10
108% | B11
99.6% | B12
111% | B13
109% | B14
106% | B15
99.3% | B16
111% | B17
99.1% | B18
98.7% | B19
100% | B20
106% | B21
99.1% | B22
112% | B23
100% | B24
112% | B25
105% | B26
103% | B27
109% | B28
104% | B29
111% | B30

These binders were tested against T1, FcγRIIa(R) extracellular domain with … (assay: SPR; % of GpH7-A5/GpH7-B3/GpL16-k0).

He/Con 2aR | Binder
109% | B1
127% | B2
127% | B3
104% | B4
105% | B5
70.9% | B6
144% | B7
102% | B8
141% | B9
117% | B10
104% | B11
150% | B12
110% | B13
100% | B14
83.1% | B15
98.3% | B16
116% | B17
145% | B18
155% | B19
143% | B20
97.4% | B21
160% | B22
104% | B23
97.6% | B24
112% | B25
104% | B26
95.1% | B27
104% | B28
99.1% | B29
104% | B30

These binders were tested against T2, FcγRIIa(H) extracellular domain with … (assay: SPR; % of GpH7-A5/GpH7-B3/GpL16-k0).

He/Con 2aH | Binder
119% | B1
95.6% | B2
92.5% | B3
100% | B4
98.3% | B5
76.4% | B6
121% | B7
103% | B8
112% | B9
115% | B10
106% | B11
121% | B12
107% | B13
102% | B14
84.6% | B15
114% | B16
109% | B17
120% | B18
126% | B19
111% | B20
101% | B21
126% | B22
100% | B23
113% | B24
110% | B25
104% | B26
112% | B27
103% | B28
97.4% | B29
105% | B30

These binders were tested against T3, FcγRIIb extracellular domain with … (assay: SPR; % of GpH7-A5/GpH7-B3/GpL16-k0).

He/Con 2b | Binder
112% | B1
122% | B2
119% | B3
101% | B4
99.6% | B5
63.6% | B6
141% | B7
97.8% | B8
136% | B9
102% | B10
98.7% | B11
143% | B12
107% | B13
92.8% | B14
74.5% | B15
99.6% | B16
117% | B17
137% | B18
154% | B19
139% | B20
91.5% | B21
161% | B22
98.4% | B23
103% | B24
111% | B25
101% | B26
104% | B27
98.7% | B28
93.8% | B29
98.2% | B30

These binders were tested against T5, FcγRIIIa extracellular domain with C-terminal His tag (human, UniProt P08637 17-208) (assay: SPR; % of GpH7-A5/GpH7-B3/GpL16-k0).
T5 construct: extracellular domain; also called 3a; CD16
T5 sequence (P08637 other isoform, or with tags, fused parts or gaps): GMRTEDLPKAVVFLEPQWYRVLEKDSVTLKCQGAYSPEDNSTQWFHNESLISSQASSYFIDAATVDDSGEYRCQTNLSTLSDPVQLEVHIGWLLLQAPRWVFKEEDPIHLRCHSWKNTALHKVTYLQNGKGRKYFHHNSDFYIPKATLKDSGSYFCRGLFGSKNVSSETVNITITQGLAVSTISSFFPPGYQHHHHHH

He/Con 3a | Binder
92.4% | B1
164% | B2
125% | B3
102% | B4
93.2% | B5
88.4% | B6
149% | B7
103% | B8
138% | B9
116% | B10
107% | B11
152% | B12
99.4% | B13
106% | B14
83.4% | B15
84.9% | B16
102% | B17
148% | B18
156% | B19
152% | B20
97.1% | B21
154% | B22
94.6% | B23
89% | B24
104% | B25
88.8% | B26
101% | B27
94.4% | B28
92.8% | B29
114% | B30
